{"source": "patent US20250222126A1", "about": "(ARIZONA BOARD OF REGENTS ON BEHALF OF ARIZONA STATE …, published 2025)", "binders": {"B1": {"name": "Tri-pdbody (designed binder)", "LCB1 mini-binder coupled to a DNA handle that is hybridised to an arm of a 3-helix-bundle DNA nanostructure": "DKEWILQKIYEIMRLLDELGHAEASMRVSDLIYEFMKKGDERLLEEAERLLEEVER", "notes": "also called 3-Arm; 3arm"}}, "biological_target": "spike wt", "data": [{"binder": "B1", "values": [{"measurement": "Kd", "result": 0.132, "unit": "nM"}]}]}
